Results on three molecules are retold here after patent publication US20150139990A1 (DAINIPPON SUMITOMO PHARMA, published 2015).

Assay [1] has as its target T1, human CD81 on CD81-expressing cells (Jurkat E6.1, human PBMC, Ramos) (human, UniProt P60033 1-236).
T1 construct: endogenous CD81 of the cells; also called wild type human CD81
T1 sequence: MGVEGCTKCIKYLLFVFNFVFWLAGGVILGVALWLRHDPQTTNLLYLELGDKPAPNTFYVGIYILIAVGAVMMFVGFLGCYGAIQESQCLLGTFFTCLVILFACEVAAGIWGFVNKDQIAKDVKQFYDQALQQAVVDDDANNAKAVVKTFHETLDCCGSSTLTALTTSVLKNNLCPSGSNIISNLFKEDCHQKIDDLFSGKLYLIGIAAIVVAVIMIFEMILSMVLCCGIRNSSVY
As to the kind of experiment: FMAT on CD81-expressing and non-expressing cells. The text has this:
A complete human antibody library n-CoDeR (Nature Biotechnol. 18: 852-856, 2000; WO98/32845) was screened for specific binding with human CD81, using human CD81 protein and human CD9 protein having a homology with CD81, or human CD81-expressing and -non-expressing cells to obtain human antibody fragments (scFv) specifically binding with human CD81. First, phages bound to biotinylated CD81 protein in the presence of competitive CD9 protein were recovered using streptoavidin-labeled magnetic beads. Unbound phages were washed out and the bound phages were eluted by trypsin treatment. Panning was carried out three times, and the selected phage library was expressed as an antibody fragment in E. coli. […] FMAT is performed by adding antibody fragments to the cells immobilized on the wells of 384-well culture plate, and detecting its binding using a fluorescent-labeled anti-scFv antibody. As a result of the screening, two human CD81-specific human antibody fragments were selected. The nucleotide sequences (scFv-002-A07: SEQ ID NO:33, scFv-005-001: SEQ ID NO:35) and the deduced amino acid sequences (scFv-002-A07: SEQ ID NO:34, scFv-005-001: SEQ ID NO:36) of these fragments were determined by sequencing.

Another assay concerns the target T2, human CD81 mutant N172A (human, UniProt P60033 1-236, limits assumed).
T2 construct: as m30; not shown: C-terminal V5 and 6xHis tags
T2 sequence: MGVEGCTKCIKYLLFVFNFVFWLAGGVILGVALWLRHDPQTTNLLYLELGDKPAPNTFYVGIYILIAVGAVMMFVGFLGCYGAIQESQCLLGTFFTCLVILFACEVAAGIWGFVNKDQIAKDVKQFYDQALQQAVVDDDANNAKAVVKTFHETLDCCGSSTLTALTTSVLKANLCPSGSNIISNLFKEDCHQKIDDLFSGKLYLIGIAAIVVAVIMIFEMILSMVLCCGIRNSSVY
As to the kind of experiment: ELISA.

The next assay deals with T3, human CD81 mutant V169A (human, UniProt P60033 1-236, limits assumed).
T3 construct: as m30; not shown: C-terminal V5 and 6xHis tags
T3 sequence: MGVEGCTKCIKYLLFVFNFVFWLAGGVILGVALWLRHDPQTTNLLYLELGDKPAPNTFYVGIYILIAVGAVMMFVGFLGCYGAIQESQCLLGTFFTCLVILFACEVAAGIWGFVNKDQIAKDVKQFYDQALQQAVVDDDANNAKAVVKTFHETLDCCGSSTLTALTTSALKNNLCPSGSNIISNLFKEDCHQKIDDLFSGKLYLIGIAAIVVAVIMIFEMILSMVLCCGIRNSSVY
As to the kind of experiment: ELISA.

The target of assay [2] is T1, human CD81 on CD81-expressing cells …. As to the kind of experiment: cell-based or functional assay.
For a further assay, the target named is T4, human CD81 mutant A164T (human, UniProt P60033 1-236, limits assumed).
T4 construct: as m30; not shown: C-terminal V5 and 6xHis tags
T4 sequence: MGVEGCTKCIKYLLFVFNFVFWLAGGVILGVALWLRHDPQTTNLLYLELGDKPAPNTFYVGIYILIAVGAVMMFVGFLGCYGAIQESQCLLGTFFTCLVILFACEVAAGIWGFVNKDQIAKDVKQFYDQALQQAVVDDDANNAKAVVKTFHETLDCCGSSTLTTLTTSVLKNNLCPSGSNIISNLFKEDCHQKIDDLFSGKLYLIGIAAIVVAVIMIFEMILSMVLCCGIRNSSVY
The assay is described as follows: ELISA.

The next assay concerns the target T5, human CD81 mutant G158S (human, UniProt P60033 1-236, limits assumed).
T5 construct: as m30; not shown: C-terminal V5 and 6xHis tags
T5 sequence: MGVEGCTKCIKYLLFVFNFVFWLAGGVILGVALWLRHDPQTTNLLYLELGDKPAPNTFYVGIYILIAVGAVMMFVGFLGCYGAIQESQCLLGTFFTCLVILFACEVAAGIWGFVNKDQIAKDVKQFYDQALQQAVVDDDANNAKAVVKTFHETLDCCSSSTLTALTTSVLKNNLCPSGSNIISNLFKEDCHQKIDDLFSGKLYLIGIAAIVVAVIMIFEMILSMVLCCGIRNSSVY
The assay is described as follows: ELISA. A general note: In an ELISA, binding on a coated surface is turned into a signal by an enzyme label.

In another assay the target is T6, human CD81 mutant V135A (human, UniProt P60033 1-236, limits assumed).
T6 construct: as m30; not shown: C-terminal V5 and 6xHis tags
T6 sequence: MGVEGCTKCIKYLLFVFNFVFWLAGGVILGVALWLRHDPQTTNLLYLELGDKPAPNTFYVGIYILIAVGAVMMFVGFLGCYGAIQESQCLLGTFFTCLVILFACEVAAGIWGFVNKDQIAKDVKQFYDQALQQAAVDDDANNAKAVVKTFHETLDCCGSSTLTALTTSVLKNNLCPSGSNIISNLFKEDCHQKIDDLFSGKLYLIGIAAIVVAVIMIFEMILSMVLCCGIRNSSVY
The assay is described as follows: ELISA.

For the next assay, the target named is T7, human CD81 mutant D137A (human, UniProt P60033 1-236, limits assumed).
T7 construct: as m30; not shown: C-terminal V5 and 6xHis tags
T7 sequence: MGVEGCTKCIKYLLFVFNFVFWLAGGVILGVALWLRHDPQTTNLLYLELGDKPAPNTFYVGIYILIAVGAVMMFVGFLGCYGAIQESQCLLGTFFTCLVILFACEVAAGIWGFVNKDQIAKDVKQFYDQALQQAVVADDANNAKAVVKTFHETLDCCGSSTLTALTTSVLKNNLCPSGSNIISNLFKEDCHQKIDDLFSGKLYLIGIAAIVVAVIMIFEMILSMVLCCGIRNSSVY
The assay is described as follows: ELISA.

For a further assay, the target named is T8, human CD81 mutant L165A (human, UniProt P60033 1-236, limits assumed).
T8 construct: as m30; not shown: C-terminal V5 and 6xHis tags
T8 sequence: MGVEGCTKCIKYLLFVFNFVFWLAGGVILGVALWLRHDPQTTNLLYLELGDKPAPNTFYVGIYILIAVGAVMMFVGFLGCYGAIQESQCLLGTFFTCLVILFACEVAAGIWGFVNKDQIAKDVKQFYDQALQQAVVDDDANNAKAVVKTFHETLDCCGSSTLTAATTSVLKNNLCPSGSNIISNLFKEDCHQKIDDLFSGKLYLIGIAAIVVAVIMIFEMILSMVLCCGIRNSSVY
As to the kind of experiment: ELISA.

The next assay concerns the target T9, human CD81 mutant V169L (human, UniProt P60033 1-236, limits assumed).
T9 construct: as m30; not shown: C-terminal V5 and 6xHis tags
T9 sequence: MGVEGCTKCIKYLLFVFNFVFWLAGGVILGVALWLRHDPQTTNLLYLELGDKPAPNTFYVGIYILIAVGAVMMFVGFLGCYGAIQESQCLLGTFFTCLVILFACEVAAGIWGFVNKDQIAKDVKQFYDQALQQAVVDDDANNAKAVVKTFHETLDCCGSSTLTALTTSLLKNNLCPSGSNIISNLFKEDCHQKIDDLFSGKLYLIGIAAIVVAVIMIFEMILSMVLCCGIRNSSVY
The assay is described as follows: ELISA.

For the next assay, the target named is T10, human CD81 mutant D137E (human, UniProt P60033 1-236, limits assumed).
T10 construct: as m30; not shown: C-terminal V5 and 6xHis tags
T10 sequence: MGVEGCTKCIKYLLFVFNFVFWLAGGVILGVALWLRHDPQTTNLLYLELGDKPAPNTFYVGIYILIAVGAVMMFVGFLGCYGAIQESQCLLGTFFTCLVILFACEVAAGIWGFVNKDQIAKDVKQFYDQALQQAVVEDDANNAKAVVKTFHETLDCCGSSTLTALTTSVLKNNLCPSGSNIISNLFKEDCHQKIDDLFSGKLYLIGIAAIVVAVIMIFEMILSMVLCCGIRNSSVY
As to the kind of experiment: ELISA.

For another assay, the target named is T11, human CD81 mutant A164V (human, UniProt P60033 1-236, limits assumed).
T11 construct: as m30; not shown: C-terminal V5 and 6xHis tags
T11 sequence: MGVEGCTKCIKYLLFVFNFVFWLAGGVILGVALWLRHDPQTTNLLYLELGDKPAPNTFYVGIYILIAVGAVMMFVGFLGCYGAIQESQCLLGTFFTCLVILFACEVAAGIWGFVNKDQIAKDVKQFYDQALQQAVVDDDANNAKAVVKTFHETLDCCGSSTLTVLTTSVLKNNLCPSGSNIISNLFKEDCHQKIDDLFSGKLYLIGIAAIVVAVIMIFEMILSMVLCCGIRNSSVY
The assay is described as follows: ELISA.

The target of the next assay is T12, human CD81 mutant V135L (human, UniProt P60033 1-236, limits assumed).
T12 construct: as m30; not shown: C-terminal V5 and 6xHis tags
T12 sequence: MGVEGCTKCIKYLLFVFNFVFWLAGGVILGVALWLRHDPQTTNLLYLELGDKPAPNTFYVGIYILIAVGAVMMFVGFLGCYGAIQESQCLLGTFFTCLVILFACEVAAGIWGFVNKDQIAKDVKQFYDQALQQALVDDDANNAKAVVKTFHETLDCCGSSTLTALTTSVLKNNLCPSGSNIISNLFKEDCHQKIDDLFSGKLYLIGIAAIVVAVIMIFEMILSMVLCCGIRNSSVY
As to the kind of experiment: ELISA.

The next assay concerns the target T13, human CD81 mutant H151R (human, UniProt P60033 1-236, limits assumed).
T13 construct: as m30; also called H151B; not shown: C-terminal V5 and 6xHis tags
T13 sequence: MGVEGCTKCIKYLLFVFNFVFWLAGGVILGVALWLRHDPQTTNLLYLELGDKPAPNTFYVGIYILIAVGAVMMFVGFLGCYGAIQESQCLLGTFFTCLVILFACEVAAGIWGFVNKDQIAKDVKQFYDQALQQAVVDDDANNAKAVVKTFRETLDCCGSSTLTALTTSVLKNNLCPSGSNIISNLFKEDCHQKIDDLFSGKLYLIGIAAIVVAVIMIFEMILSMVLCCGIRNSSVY
As to the kind of experiment: ELISA.

Where only a bound is given, the exact number is not on record here.

B1: scFv-002-A07 (scFv)
scFv: EVQLLESGGGLVQPGGSLRLSCAASGFTFSSNYMSWVRQAPGKGLEWVSYISSSSTYTDYADSVKGRFTISRDNSKNTLYLQMNSLRAEDTAVYYCARYSYGRDNFDYWGQGTLVTVSSGGGGSGGGGSGGGGSQSVLTQPPSASGTPGQRVTISCTGSTSNIGAGYDTHWYQQLPGTAPKLLIYGNSNRPSGVPDRFSGSKSGTSASLAISGLRSEDEADYYCQSYDTNLSVWVFGGGTKLTVLGEQKLISEEDLSGSAAAHHHHHH
notes: antibody fragment from the n-CoDeR library, expressed in E. coli
As to B1, the binding result in assay [1] is “binds”.

B2: 003-A10 (antibody, human IgG4 S228P, lambda, V domains shown)
VH: EVQLLESGGGLVQPGGSLRLSCAASGFTFSSNYMSWVRQAPGKGLEWVSYISSSSTYTDYADSVKGRFTISRDNSKNTLYLQMNSLRAEDTAVYYCARYSYGRDTFDYWGQGTLVTVSS
VL: QSVLTQPFSASGTPGQRVTISCTGSTSNIGAGYDTHWYQQLPGTAPKLLIYGNSNRPSGVPDRFSGSKSGTSASLAISGLRSEDEADYYCQSYDTNLSVWVFGGGTKLTVLG
notes: IgG4 S228P
As for B2, the relative binding affinity in the assay with human CD81 mutant N172A is below 20%. The same molecule came in with a relative binding affinity in the assay with human CD81 mutant V169A below 20%. Further, in assay [2], the “Jurkat chemotaxis (% of control IgG4) at 0.001 µg/mL” value was determined as 104%, the “Jurkat chemotaxis (% of control IgG4) at 0.01 µg/mL” value came out at 93%, the “Jurkat chemotaxis (% of control IgG4) at 0.1 µg/mL” value amounted to 15% and the “Jurkat chemotaxis (% of control IgG4) at 1 µg/mL” value was determined as 3%. For the same molecule, the “Jurkat chemotaxis (% of control IgG4) at 10 µg/mL” value in assay [2] came to 3%.

B3: 003-F08 (antibody, human IgG4 S228P, lambda, V domains shown)
VH: EVQLLESGGGLVQPGGSLRLSCAASGFTFSSNYMSWVRQAPGKGPEWVSYISSSSTYADYADSVKGRFTISRDNSKNTLYLQMNSLRAEDTAVYYCARYSYGRDNFDYWGQGTLVTVSS
VL: QSVLTQPSSASGTPGQRVTISCTGSTSNIGAGYDTHWYQQLPGTAPKLLIYGNSNRPSGVPDRFSGSKSGTSASLAISGLRSEDEADYYCQSYDTNLSAWVFGGGTKLTVLG
notes: IgG4 S228P
In the case of B3, the relative binding affinity in the assay with human CD81 mutant A164T, with human CD81 mutant G158S, with human CD81 mutant V135A, with human CD81 mutant D137A, in the assay with human CD81 mutant V169A and in the assay with human CD81 mutant L165A was below 20% throughout. The relative binding affinity with human CD81 mutant V169L, with human CD81 mutant D137E, with human CD81 mutant A164V, with human CD81 mutant V135L and with human CD81 mutant H151R was below 20% in each case. The “Jurkat chemotaxis (% of control IgG4) at 0.001 µg/mL” value in assay [2] was found to be 80%. Moreover, the “Jurkat chemotaxis (% of control IgG4) at 0.01 µg/mL” value in assay [2] came to 79%. Also, the “Jurkat chemotaxis (% of control IgG4) at 0.1 µg/mL” value in [2] came to 21%. The “Jurkat chemotaxis (% of control IgG4) at 1 µg/mL” value in [2] is -3%. Further, the “Jurkat chemotaxis (% of control IgG4) at 10 µg/mL” value in [2] was -4%.
